According to paper PMC11986026:

Columns and labels:
Assay in all cases: cryo-EM structure; purified Wzc at ~2 mg/ml in LMNG, incubated with 1 mM ADP and 10 mM MgCl2 at 4 °C for 1 h; maps refined without symmetry (C1) or with C8 symmetry; octamer of one protein
[1] = target: Wzc^K540M3YE (K540M, Y718E, Y717E and Y715E) from E. coli serotype K30 (E. coli K30) (UniProt P76387)
[2] = target: Wzc^K540M2YE (K540M, Y718E, Y717E) from E. coli serotype K30 (E. coli K30) (UniProt P76387)
[3] = target: Wzc^K540M3YE_N711Y (K540M, Y718E, Y717E, Y715E and N711Y) from E. coli serotype K30 (E. coli K30) (UniProt P76387)

Wzc^K540M3YE (K540M, Y718E, Y717E and Y715E) from E. coli serotype K30 (from UniProt P76387 1-720) (enzyme)
stoichiometry N [1]: 8

Wzc^K540M2YE (K540M, Y718E, Y717E) from E. coli serotype K30 (from UniProt P76387 1-720) (enzyme)
stoichiometry N [2]: 8

Wzc^K540M3YE_N711Y (K540M, Y718E, Y717E, Y715E and N711Y) from E. coli serotype K30 (from UniProt P76387 1-720) (enzyme)
stoichiometry N [3]: 8
